Assay results as given in patent US20200347147A1 (Hoffmann-La Roche, published 2020).
Values belong to the binder of their own block, whether it stands above or below them.

Key:
human CEACAM6 = target: T1, human CEACAM6 (human, UniProt P40199 35-320); experiment: flow cytometry on transient HEK293T transfectants
T1 construct: whole, on cells
T1 sequence (looked up): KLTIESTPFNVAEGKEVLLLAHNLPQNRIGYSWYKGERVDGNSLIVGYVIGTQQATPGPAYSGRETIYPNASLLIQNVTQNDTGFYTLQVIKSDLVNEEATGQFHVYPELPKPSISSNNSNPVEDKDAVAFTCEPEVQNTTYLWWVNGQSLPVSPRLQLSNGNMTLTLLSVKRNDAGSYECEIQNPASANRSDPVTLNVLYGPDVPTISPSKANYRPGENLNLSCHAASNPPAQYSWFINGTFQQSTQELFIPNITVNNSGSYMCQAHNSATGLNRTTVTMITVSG
Method: (§1) Briefly, cells were harvested, counted, checked for viability and re-suspended at 1×10⁶ cells/ml in FACS buffer (100 μl PBS 0.1% BSA). 100 μl of the cell suspension (containing 0.1×10⁶ cells) were plated iton round-bottom 96-well plates and washed twice with 150 μl of cold PBS. Cells were stained for 30 min at 4° C., using a 1:5000 pre-diluted suspension of the fixable viability dye eFluor660 (eBioscience, #65-0864-14) in PBS. […] Cells were washed twice with cold PBS 0.1% BSA, re-incubated for further 30 min at 4° C. with the FITC-conjugated AffiniPure F(ab′)2 Fragment goat anti-human IgG Fcg Fragment Specific secondary antibody (Jackson Immuno Research Lab FITC #109-096-098, 1:50 pre-diluted in PBS 0.1% BSA), washed twice with cold PBS 0.1% BSA and fixed using 150 μl PBS 0.1% BSA, containing 2% PFA and incubation at 4° C. for 20 min. Thereafter, cells were washed once for 8 min at 400×g, 4° C. and finally re-suspended in 150 μl FACS buffer for the FACS measurement. Fluorescence was measured using BD FACS CantoII. Binding curves were obtained using GraphPadPrism6 (FIG. 20A).

human CEACAM1 = target: T2, human CEACAM1 (human, UniProt P13688 35-526); experiment: flow cytometry on transient HEK293T transfectants
T2 construct: whole, on cells
T2 sequence (looked up): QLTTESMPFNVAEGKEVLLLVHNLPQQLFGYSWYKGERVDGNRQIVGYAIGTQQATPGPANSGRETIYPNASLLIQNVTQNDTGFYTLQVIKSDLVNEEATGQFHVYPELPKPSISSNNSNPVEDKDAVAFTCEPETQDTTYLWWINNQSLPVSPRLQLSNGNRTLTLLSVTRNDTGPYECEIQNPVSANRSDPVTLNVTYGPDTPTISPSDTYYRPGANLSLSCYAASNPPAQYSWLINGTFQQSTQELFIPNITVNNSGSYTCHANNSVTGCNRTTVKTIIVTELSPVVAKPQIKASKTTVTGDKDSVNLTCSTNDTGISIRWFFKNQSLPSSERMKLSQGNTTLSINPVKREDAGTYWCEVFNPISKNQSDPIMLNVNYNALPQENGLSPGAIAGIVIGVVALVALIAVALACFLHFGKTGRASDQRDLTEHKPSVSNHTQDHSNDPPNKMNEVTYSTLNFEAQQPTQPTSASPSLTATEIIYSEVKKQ
Method: as §1

[1] = target: T3, human Carcinoembryonic antigen (CEA), also known as Carcinoembryonic antigen-related cell adhesion molecule 5 (human, UniProt P06731 35-685); experiment: flow cytometry on CEA-expressing MKN45 cells, PE anti-human Fc secondary
T3 construct: whole, on cells; Expressed on the tumor cell lines MKN45, LS174T, HT29 and others, and on transiently transfected HEK293T cells; also called human CEA; CEACAM5
T3 sequence (looked up): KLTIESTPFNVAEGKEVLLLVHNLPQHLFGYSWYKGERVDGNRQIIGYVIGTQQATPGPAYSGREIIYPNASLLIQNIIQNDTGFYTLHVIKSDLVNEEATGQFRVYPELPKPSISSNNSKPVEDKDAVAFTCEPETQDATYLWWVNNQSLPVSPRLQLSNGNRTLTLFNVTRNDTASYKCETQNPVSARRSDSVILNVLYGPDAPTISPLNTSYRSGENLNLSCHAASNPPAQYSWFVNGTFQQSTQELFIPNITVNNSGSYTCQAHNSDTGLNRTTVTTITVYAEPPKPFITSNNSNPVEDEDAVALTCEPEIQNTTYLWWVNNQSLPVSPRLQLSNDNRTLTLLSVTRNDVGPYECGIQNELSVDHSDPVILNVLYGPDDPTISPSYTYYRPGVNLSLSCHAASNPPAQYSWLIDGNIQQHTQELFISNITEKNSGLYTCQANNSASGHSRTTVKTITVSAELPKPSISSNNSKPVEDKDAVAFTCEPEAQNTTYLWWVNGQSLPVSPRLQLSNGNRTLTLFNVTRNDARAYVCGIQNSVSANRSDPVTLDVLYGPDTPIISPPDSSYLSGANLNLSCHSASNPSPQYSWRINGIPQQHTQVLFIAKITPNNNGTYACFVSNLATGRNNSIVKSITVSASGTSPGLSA
Method: Briefly, cells were harvested, counted, checked for viability and re-suspended at 2×10⁶ cells/ml in FACS buffer (100 μl PBS 0.1% BSA). […] Binding curves and EC50 values were obtained and calculated using GraphPadPrism5 (FIG. 2, binding to MKN45 cells).

[2] = target: T3, human Carcinoembryonic antigen (CEA), …; experiment: cell-based or functional assay
[3] = target: T3, human Carcinoembryonic antigen (CEA), …; experiment: flow cytometry on MKN45 cells (~513 300 CEA binding sites)
Method: (§2) The binding of the TCB molecules used in Example 5A and B was tested on different CEA-expressing tumor and CD3-expressing Jurkat (DSMZ ACC 282) cells.
(§3) Briefly, cells were harvested, counted, checked for viability and re-suspended at 2×10⁶ cells/ml in FACS buffer (100 μl PBS 0.1% BSA). 100 μl of cell suspension (containing 0.2×10⁶ cells) were incubated in round-bottom 96-well plate for 30 min at 4° C. with increasing concentrations of the CEA IgG (31 pM-500 nM), washed twice with cold PBS 0.1% BSA, re-incubated for further 30 min at 4° C. with the FITC-conjugated AffiniPure F(ab′)2 Fragment goat anti-human IgG Fcg Fragment Specific secondary antibody (Jackson Immuno Research Lab FITC #109-096-008, 1:40 pre-diluted in PBS 0.1% BSA), washed twice with cold PBS 0.1% BSA and fixed using 150 μl PBS 0.1% BSA, containing 2% PFA and incubation at 4° C. for 20 min. Thereafter, cells were washed once for 8 min at 400×g, 4° C. and finally re-suspended in 150 μl FACS buffer for the FACS measurement. Fluorescence was measured using Miltenyi MACSQuant.

[4] = target: T3, human Carcinoembryonic antigen (CEA), …; experiment: flow cytometry on LS-174T cells (~40 700 CEA binding sites)
Method: as §2, §3

binding result (human CEACAM6): no binding (tested: 30.5 pM-500 nM)
binding result (human CEACAM1): no binding (tested: 30.5 pM-500 nM)
B1: CEA CD3 TCB molecule B, "2+1 IgG CrossFab, inverted" with charge modifications, humanized CEA binder (humanized variant 1) (bispecific antibody)
heavy 1: not shown
heavy 2: QVQLVQSGAEVKKPGSSVKVSCKASGFNIKDTYMHWVRQAPGQGLEWMGRIDPANGNSKYVPKFQGRVTITADTSTSTAYMELSSLRSEDTAVYYCAPFGYYVSDYAMAYWGQGTLVTVSSASTKGPSVFPLAPSSKSTSGGTAALGCLVEDYFPEPVTVSWNSGALTSGVHTFPAVLQSSGLYSLSSVVTVPSSSLGTQTYICNVNHKPSNTKVDEKVEPKSCDKTHTCPPCPAPEAAGGPSVFLFPPKPKDTLMISRTPEVTCVVVDVSHEDPEVKFNWYVDGVEVHNAKTKPREEQYNSTYRVVSVLTVLHQDWLNGKEYKCKVSNKALGAPIEKTISKAKGQPREPQVCTLPPSRDELTKNQVSLSCAVKGFYPSDIAVEWESNGQPENNYKTTPPVLDSDGSFFLVSKLTVDKSRWQQGNVFSCSVMHEALHNHYTQKSLSLSP
light 1: EIVLTQSPATLSLSPGERATLSCRAGESVDIFGVGFLHWYQQKPGQAPRLLIYRASNRATGIPARFSGSGSGTDFTLTISSLEPEDFAVYYCQQTNEDPYTFGQGTKLEIKRTVAAPSVFIFPPSDRKLKSGTASVVCLLNNFYPREAKVQWKVDNALQSGNSQESVTEQDSKDSTYSLSSTLTLSKADYEKHKVYACEVTHQGLSSPVTKSFNRGEC
light 2: EVQLLESGGGLVQPGGSLRLSCAASGFTFSTYAMNWVRQAPGKGLEWVSRIRSKYNNYATYYADSVKGRFTISRDDSKNTLYLQMNSLRAEDTAVYYCVRHGNFGNSYVSWFAYWGQGTLVTVSSASVAAPSVFIFPPSDEQLKSGTASVVCLLNNFYPREAKVQWKVDNALQSGNSQESVTEQDSKDSTYSLSSTLTLSKADYEKHKVYACEVTHQGLSSPVTKSFNRGEC
notes: The two copies of the CEA light chain follow from the 2+1 format and the 1:2:1:1 vector ratio; also called CEA CD3 TCB based on humanized variant 1

EC50 [1]: 1.5 µg/mL
B2: Humanized variant 1 of T84.66 IgG (antibody, V domains shown)
VH: QVQLVQSGAEVKKPGSSVKVSCKASGFNIKDTYMHWVRQAPGQGLEWMGRIDPANGNSKYVPKFQGRVTITADTSTSTAYMELSSLRSEDTAVYYCAPFGYYVSDYAMAYWGQGTLVTVSS
VL: EIVLTQSPATLSLSPGERATLSCRAGESVDIFGVGFLHWYQQKPGQAPRLLIYRASNRATGIPARFSGSGSGTDFTLTISSLEPEDFAVYYCQQTNEDPYTFGQGTKLEIK
notes: Tested as IgG and detected with an anti-human IgG Fc secondary antibody

EC50 of T-cell mediated lysis of Kato III cells (LDH release, human PBMC, E:T 10:1), 48 h [2]: 8.23 nM
EC50 [3]: 27.9 nM
EC50 [4]: 11.7 nM
B3: CEA CD3 TCB molecule X (TCB of similar structure as molecule B, based on a different humanized CEA binder not based on T84.66) (bispecific antibody)
chain 1: not shown
chain 2: QVQLVQSGAEVKKPGASVKVSCKASGYTFTEFGMNWVRQAPGQGLEWMGWINTKTGEATYVEEFKGRVTFTTDTSTSTAYMELRSLRSDDTAVYYCARWDFAYYVEAMDYWGQGTTVTVSSASTKGPSVFPLAPSSKSTSGGTAALGCLVKDYFPEPVTVSWNSGALTSGVHTFPAVLQSSGLYSLSSVVTVPSSSLGTQTYICNVNHKPSNTKVDKKVEPKSCDKTHTCPPCPAPEAAGGPSVFLFPPKPKDTLMISRTPEVTCVVVDVSHEDPEVKFNWYVDGVEVHNAKTKPREEQYNSTYRVVSVLTVLHQDWLNGKEYKCKVSNKALGAPIEKTISKAKGQPREPQVCTLPPSRDELTKNQVSLSCAVKGFYPSDIAVEWESNGQPENNYKTTPPVLDSDGSFFLVSKLTVDKSRWQQGNVFSCSVMHEALHNHYTQKSLSLSPGK
chain 3: QAVVTQEPSLTVSPGGTVTLTCGSSTGAVTTSNYANWVQEKPGQAFRGLIGGTNKRAPGTPARFSGSLLGGKAALTLSGAQPEDEAEYYCALWYSNLWVFGGGTKLTVLSSASTKGPSVFPLAPSSKSTSGGTAALGCLVKDYFPEPVTVSWNSGALTSGVHTFPAVLQSSGLYSLSSVVTVPSSSLGTQTYICNVNHKPSNTKVDKKVEPKSC
chain 4: DIQMTQSPSSLSASVGDRVTITCKASAAVGTYVAWYQQKPGKAPKLLIYSASYRKRGVPSRFSGSGSGTDFTLTISSLQPEDFATYYCHQYYTYPLFTFGQGTKLEIKRTVAAPSVFIFPPSDEQLKSGTASVVCLLNNFYPREAKVQWKVDNALQSGNSQESVTEQDSKDSTYSLSSTLTLSKADYEKHKVYACEVTHQGLSSPVTKSFNRGEC
